The values below come from PMC4901202, “Sld3-MCM Interaction Facilitated by Dbf4-Dependent Kinase Defines an Essential Step in Eukaryotic DNA Replication Initiation” (Frontiers in Microbiology, 2016).

The target of the experiment is T1, 6His-Sld3 (budding yeast, UniProt P53135 1-668).
T1 construct: Sld3, budding yeast; Tag end read from the printed order 6His-SLD3; also called pET28a-SLD3; source: E. coli BL21 (DE3) CodonPlus RIL, purified (Ni2+ columns); not shown: 6His, N-terminal, kept
T1 sequence (looked up): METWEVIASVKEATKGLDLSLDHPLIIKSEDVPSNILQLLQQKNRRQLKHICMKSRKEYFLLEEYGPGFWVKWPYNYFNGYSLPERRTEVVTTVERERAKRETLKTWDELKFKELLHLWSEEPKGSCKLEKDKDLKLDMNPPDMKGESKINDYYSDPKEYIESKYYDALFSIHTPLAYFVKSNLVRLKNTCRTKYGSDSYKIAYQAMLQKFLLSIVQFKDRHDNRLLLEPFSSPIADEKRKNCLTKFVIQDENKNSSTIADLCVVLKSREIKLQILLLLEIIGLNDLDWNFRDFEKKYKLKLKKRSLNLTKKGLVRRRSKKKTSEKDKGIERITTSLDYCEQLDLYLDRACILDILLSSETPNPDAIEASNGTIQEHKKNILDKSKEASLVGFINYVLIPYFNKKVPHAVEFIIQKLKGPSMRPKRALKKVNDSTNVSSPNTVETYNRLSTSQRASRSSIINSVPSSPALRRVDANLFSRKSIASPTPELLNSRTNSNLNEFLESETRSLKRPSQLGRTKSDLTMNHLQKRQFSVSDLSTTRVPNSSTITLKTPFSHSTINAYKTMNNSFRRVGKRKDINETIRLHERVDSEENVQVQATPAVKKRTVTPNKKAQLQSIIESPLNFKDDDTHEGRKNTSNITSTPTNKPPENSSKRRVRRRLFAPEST
The experiment is described as follows: pull-down; 2 μg 6His-Sld3 and 5 μg GST-Mcm6 or GST-Mcm2 with glutathione-Sepharose beads; 40 mM Tris-HCl pH 7.5, 100 mM NaCl, 0.1 mM EDTA, 10% glycerol, 0.1% Triton X-100, 1 mM DTT, 1 mg/ml BSA; 1 h at 4°C; immunoblots with anti-His and anti-GST. Particulars: both partners purified. Background: In western blotting, separated proteins are transferred to a membrane and probed.

B1: GST-Mcm2N (1–390) (domain or fragment, budding yeast, UniProt P29469 1-390, looked up)
chain: MSDNRRRRREEDDSDSENELPPSSPQQHFRGGMNPVSSPIGSPDMINPEGDDNEVDDVPDIDEVEEQMNEVDLMDDNMYEDYAADHNRDRYDPDQVDDREQQELSLSERRRIDAQLNERDRLLRNVAYIDDEDEEQEGAAQLDEMGLPVQRRRRRRQYEDLENSDDDLLSDMDIDPLREELTLESLSNVKANSYSEWITQPNVSRTIARELKSFLLEYTDETGRSVYGARIRTLGEMNSESLEVNYRHLAESKAILALFLAKCPEEMLKIFDLVAMEATELHYPDYARIHSEIHVRISDFPTIYSLRELRESNLSSLVRVTGVVTRRTGVFPQLKYVKFNCLKCGSILGPFFQDSNEEIRISFCTNCKSKGPFRVNGEKTVYRNYQRVTL
notes: Mcm2, budding yeast, residues 1-390; Tag end read from the printed order GST-mcm2(1–390); also called GST-Mcm2 (1–390); pGEX-4T -1-mcm2(1–390); source: E. coli BL21 (DE3) CodonPlus RIL, purified as previously described (Quan et al., 2015); not shown: GST, N-terminal, kept
On to B1, for which the binding result was “binds”.
